T1: human CD94 (human, UniProt Q13241 1-179)
T1 construct: whole, on cells; Endogenous CD94 on primary cells (healthy-donor PBMC NK cells, CLPD-NK and T-LGLL patient cells), where it pairs with NKG2A or NKG2C; also called KLRD1; Natural killer cells antigen CD94
T1 sequence (looked up): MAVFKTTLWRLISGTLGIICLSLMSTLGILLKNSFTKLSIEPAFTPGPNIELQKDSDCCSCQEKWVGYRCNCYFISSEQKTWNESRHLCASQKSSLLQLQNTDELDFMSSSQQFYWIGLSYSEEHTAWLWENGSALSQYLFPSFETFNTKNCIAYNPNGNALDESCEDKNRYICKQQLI


Legend:
human CD94 [1] = target: T1, human CD94; test: flow cytometry titration (100 nM to 0.046 nM) on healthy-donor PBMCs, CD3-CD56bright NK cells; column 'Affinity on human NK cells (nM)'
human CD94 [2] = target: T1, human CD94; test: HLA-E tetramer blocking on healthy-donor PBMCs, flow cytometry; competitor HLA-E tetramer
Description: Healthy donor PBMCs were seeded in 96-well plates at a density of 100,000 cells per well, incubated with human Fc block (Biolegend) and cell viability dye (Thermo Fisher) for 30 minutes on ice and protected from light. The cells were washed once with FACS buffer (PBS with 2% IgG low FBS). anti-CD94 antibodies at EC80 concentrations were incubated with cells for 30 minutes on ice and protected from light. After incubation with the anti-CD94 antibodies, the cells were washed and incubated with HLA-E tetramer PE (Creative Biolabs), anti-CD3 pacific blue-labelled, and anti-CD56 FITC-labelled antibodies (Biolegend) for 30 minutes on ice and protected from light. The cells then received a final wash in FACS buffer before quantification on the Cytoflex (Beckman Coulter). All data acquisition and fluorescence compensation were performed using CytoFlex (Beckman Coulter, Atlanta, Ga.). Data analysis was performed using FlowJo software. NK cells were identified through gating on lymphocytes on the forward and side scatter, followed by doublet and dead cell exclusion, and gated on the CD3−CD56+ population. HLA-E expression was then quantified on the CD3−CD56+NK cell population. Percent blocking was calculated as 100−((percent HLA-E positive for anti-CD94 antibody)/(percent HLA-E positive for isotype)*100).
Healthy donor PBMCs were incubated with anti-CD94 antibodies. PE labeled HLA-E tetramer was then incubated with cells and antibody mixture and detected by flow cytometry.
Percent blocking was calculated as 100−((percent HLA-E positive for anti-CD94 antibody)/(percent HLA-E positive for isotype)*100). If an antibody blocked more than 20% of HLA-E binding, it was considered a ligand-blocking antibody.

human CD94 [3] = target: T1, human CD94; test: cell-based or functional assay

| EC50 (human CD94 [1]) [nM] | percent HLA-E blocking (human CD94 [2]) [%] | IC50 of CLPD-NK leukemic cell depletion, ADCC assay with CLPD-NK patient PBMCs (human CD94 [3]) [µg/mL] | IC50 of NK cell depletion, ADCC assay with healthy donor PBMCs (human CD94 [3]) [µg/mL] | Binder |
| --- | --- | --- | --- | --- |
| 0.31 | 77 | – | – | anti-CD94 antibody ATX-127 (antibody, human IgG1, V domains shown) VH: QVQLQQSGPGLVKPSGTLSLTCAVSGGSISSRYWWTWVRQPPGKGLEWIGEIYHSGTTNYNPSLESRVTISVDKSKNQFSLKVSSVTAADTAVYYCARSPNWGYYYYYMDVWGKGTTVTVSS VL: EIVMTQSPATLSVSPGERATLSCRASQSVSSSYLAWYQQKPGQAPRLLIYGASSRATGIPDRFSGSGSGTDFTLTISRLESEDFAVYYCQQYGRSLTFGGGTKVEIK |
| 2.8 | 96 | – | – | anti-CD94 antibody ATX-129 (antibody, human IgG1, V domains shown) VH: EVQLVQSGGGLVQPGGSLRLSCAASGFTFSSYWMSWVRQAPGKGLEWVANIKQDGSAKYYVDSVKGRFTISRDNAKNSLYLQMNSLRAEDTAVYYCARGYYFDYWGQGTLVTVSS VL: EIVLTQSPSTLSASVGDRVTITCRVSQGISSYLNWYRQKPGKVPKLLIYAASSLQSGVPSRFSGSGSGTDFTLTISSLQPEDFATYYCQQSYSTPITFGQGTRLEIK |
| 0.32 | 10 | – | – | anti-CD94 antibody ATX-128 (antibody, V domains shown) VH: QVQLQESGGGLVQPGGSLKLSCAASGFTFSGSTIQWVRQASGKGLEWVGRIRSKANSYATASAASVKGRFTISRDDSKNMAYLQMNSLKTEDTAVYYCTREGLGYYNVGYYYFYMDVWGKGTTVTVSS VL: not shown |
| 10 | 18 | – | – | anti-CD94 antibody ATX-124 (antibody, human IgG1, V domains shown) VH: QVQLVQSGAEVKKPGASVKVSCKASGYTFTSYGISWVRQAPGQGLEWMGWISAYNGNTNYAQKLQGRVTMTTDTSTSTAYMEVRSLRSDDTAVYYCARDRGRFGELFFDHWGQGTLVTVSS VL: DIVMTQSPSSVSASVGDRVTITCRASQGISNYLAWYQQKPGKAPKLLIYAASSLQSGVPSRFSGSGSGTDFTLTISSLQPEDFATYYCLQHNSYPFTFGPGTKVDIK |
| 1.12 | 39 | – | – | anti-CD94 antibody ATX-123 (antibody, human IgG1, V domains shown) VH: QVQLVQSGAEVKKPGASVKVSCKASGYTFTSYGISWVRQAPGQGLEWMGWISAYNGNTNYAQKFQGRVTMTTDTSTNTAYMELRSLRSDDTAVYYCARDRGRFGELLSDYWGQGTLVTVSS VL: DIVMTQSPSSVSASVGDRVTITCRASQGISNYLAWYQQKPGKAPKLLIYAASSLQSGVPSRFSGSGSGTDFTLTISSLQPEDFATYYCLQHNSYPFTFGPGTKVDIK |
| 27 | 0 | – | – | anti-CD94 antibody ATX-122 (antibody, V domains shown, Detected with an anti-human secondary antibody) VH: QVQLVQSGAEVKKPGASLKVSCKASGYTFTSYGVSWVRQAPGQGLEWVGWISPYNGNTNYAHNLQGRVAMTTDTSTSTAYMELRSLRSDDMAVYYCARDRGRFGELFFDYWGQGTLVTVSS VL: DIVMTQSPSSVSASVGDRVTITCRASQGISNYLAWYQQKPGKAPKLLIYAASSLQSGVPSRFSGSGSGTDFTLTISSLQPEDFATYYCLQHNSYPFTFGPGTKVDIK |
| – | – | 0.059 | 0.02 | 18H3-KIF (antibody, V domains shown) VH: EVQLVQSGAEVKKPGESLKISCKGSGYRFTSYWIGWVRQMPGKGLEWMGIIYPGDSDTRYSPSFQGQVIISADKSITTAFLQWSSLKASDTAMYYCARPFDYGGSPGYFDYWGQGTLVTVSS VL: DIQMTQSPSTLSASVGDRVTITCRASQSIRSWLAWYQQKPGKAPKLLIYKASSLESGVPSRFSGSGSGTEFTLTISSLQPDDFATYYCQQYNTFWTFGQGTKVEIK |

From US20220127365A1 (DREN BIO, published 2022)
